Assay results from article PMC10716131, “Structural and biophysical comparisons of the pomalidomide- and CC-220-induced interactions of SALL4 with cereblon” (Scientific Reports, 2023).

Target: T1, DDB1:CRBN complex, full-length human CRBN (residues 1–442) with N-terminal biotinylated Avi-tag, co-expressed … (human, UniProt Q96SW2 1-442; Q16531 1-1140, biotin on the Avi-tag (BirA, 100% efficiency))
T1 construct: cereblon (CRBN), human, full-length, residues 1–442; DDB1, human, residues 1–1140; A 6xGS linker stands between the non-cleavable Avi-tag and CRBN; The host is named (Sf21) only for the crystallisation construct; also called DDB1:N-avi-biotin-CRBN; DDB1:N-avi-CRBN; source: biotinylated with BirA; not shown: Avi-tag, N-terminal, kept
Assay: SPR; DDB1:N-avi-biotin-CRBN immobilised on a streptavidin sensor (~5000–7000 RU), Biacore 8k, ABA method; SALL4 zinc fingers in 2X dilution series with 5 μM pomalidomide throughout; PBS pH 7.2, 5% glycerol, total NaCl ~300 mM, 0.01% P20, 1 mM TCEP, 0.05% DMSO; 15 °C; 30 µL/minute; 1:1 kinetic modelling
Conditions: both partners purified

T1 sequence (Q96SW2 whole entry, chain 1 of 2, the tested form may be a part): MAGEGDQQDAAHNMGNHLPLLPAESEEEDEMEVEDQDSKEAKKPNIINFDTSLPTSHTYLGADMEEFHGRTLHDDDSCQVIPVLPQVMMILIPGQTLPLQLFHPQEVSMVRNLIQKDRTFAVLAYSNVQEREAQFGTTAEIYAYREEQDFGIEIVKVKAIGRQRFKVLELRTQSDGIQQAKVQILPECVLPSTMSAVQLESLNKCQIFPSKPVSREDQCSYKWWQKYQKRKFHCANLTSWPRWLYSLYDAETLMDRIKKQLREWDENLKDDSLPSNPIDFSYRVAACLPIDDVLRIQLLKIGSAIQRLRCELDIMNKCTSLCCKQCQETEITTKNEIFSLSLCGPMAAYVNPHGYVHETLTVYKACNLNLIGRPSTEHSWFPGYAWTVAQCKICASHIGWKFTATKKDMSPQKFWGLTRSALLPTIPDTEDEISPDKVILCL
T1 sequence (Q16531 whole entry, chain 2 of 2, the tested form may be a part): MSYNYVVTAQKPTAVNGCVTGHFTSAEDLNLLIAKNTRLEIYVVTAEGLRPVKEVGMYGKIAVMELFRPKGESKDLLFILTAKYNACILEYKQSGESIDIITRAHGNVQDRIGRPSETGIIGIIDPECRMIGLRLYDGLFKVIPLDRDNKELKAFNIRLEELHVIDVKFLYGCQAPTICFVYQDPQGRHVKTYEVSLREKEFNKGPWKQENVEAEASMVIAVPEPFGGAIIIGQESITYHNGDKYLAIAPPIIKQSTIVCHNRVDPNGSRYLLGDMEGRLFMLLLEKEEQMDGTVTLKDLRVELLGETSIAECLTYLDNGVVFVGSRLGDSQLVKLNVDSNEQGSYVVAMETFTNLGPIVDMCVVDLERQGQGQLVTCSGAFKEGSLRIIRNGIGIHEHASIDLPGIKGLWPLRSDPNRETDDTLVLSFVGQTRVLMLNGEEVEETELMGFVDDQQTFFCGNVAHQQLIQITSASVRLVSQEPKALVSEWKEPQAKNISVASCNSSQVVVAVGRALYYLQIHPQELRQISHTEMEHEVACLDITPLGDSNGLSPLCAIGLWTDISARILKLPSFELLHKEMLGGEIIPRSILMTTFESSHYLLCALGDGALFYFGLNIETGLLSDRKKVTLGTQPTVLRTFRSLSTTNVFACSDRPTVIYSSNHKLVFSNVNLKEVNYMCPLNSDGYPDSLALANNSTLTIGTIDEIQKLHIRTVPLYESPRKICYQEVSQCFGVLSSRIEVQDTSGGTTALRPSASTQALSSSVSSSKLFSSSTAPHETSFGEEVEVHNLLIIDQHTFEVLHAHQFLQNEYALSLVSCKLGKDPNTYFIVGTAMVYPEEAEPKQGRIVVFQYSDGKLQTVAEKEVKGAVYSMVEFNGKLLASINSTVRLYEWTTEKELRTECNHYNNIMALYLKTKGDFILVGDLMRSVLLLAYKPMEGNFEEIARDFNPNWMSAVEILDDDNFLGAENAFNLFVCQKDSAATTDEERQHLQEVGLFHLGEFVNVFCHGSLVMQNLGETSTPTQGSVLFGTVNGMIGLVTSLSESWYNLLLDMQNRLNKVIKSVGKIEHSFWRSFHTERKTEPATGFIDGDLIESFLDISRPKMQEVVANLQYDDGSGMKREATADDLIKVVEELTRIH

KD with pomalidomide: > 50 µM
B1: Human SALL4 ZF1(370–409) (domain or fragment, UniProt Q9UJQ4 370-409, looked up)
chain: DVKPKDEAALYKHKCKYCSKVFGTDSSLQIHLRSHTGERP
notes: not shown: Twin-Strep-ZZ, N-terminal, cleaved
